In data set [1] the target is non-targeted mut-scFv-TAP (UniProt P17726).
Data set [2] concerns the target recombinant tick anticoagulant peptide (rTAP) (UniProt P17726).
For data set [3], the system named is scFv anti-LIBS-TAP fusion protein.

On to factor Xa (fXa), for which the “cleavage of chromogenic substrate (spectrozyme FXa #222) by factor Xa, OD at 405 nm” value is “inhibition of factor Xa activity by rTAP, scFv anti-LIBS-TAP, and non-targeted mut-scFv-TAP, but not by scFv anti-LIBS” in data set [1]; “inhibition of factor Xa activity by rTAP, scFv anti-LIBS-TAP, and non-targeted mut-scFv-TAP, but not by scFv anti-LIBS” in data set [2]; “inhibition of factor Xa activity by rTAP, scFv anti-LIBS-TAP, and non-targeted mut-scFv-TAP, but not by scFv anti-LIBS” in data set [3].

The values above are taken from patent publication US20140243502.
